Measured values as given in patent US7572574B2, “Method of measuring neprilysin activity” (Riken, priority 2002, dated 2009).

Target: T1, neprilysin (Mus musculus, UniProt Q61391)
T1 construct: endogenous in cells; host or cells: mouse fetal cerebral cortex and hippocampus primary cultured nerve cells, paraformaldehyde-fixed
T1 sequence (Q61391 1-750): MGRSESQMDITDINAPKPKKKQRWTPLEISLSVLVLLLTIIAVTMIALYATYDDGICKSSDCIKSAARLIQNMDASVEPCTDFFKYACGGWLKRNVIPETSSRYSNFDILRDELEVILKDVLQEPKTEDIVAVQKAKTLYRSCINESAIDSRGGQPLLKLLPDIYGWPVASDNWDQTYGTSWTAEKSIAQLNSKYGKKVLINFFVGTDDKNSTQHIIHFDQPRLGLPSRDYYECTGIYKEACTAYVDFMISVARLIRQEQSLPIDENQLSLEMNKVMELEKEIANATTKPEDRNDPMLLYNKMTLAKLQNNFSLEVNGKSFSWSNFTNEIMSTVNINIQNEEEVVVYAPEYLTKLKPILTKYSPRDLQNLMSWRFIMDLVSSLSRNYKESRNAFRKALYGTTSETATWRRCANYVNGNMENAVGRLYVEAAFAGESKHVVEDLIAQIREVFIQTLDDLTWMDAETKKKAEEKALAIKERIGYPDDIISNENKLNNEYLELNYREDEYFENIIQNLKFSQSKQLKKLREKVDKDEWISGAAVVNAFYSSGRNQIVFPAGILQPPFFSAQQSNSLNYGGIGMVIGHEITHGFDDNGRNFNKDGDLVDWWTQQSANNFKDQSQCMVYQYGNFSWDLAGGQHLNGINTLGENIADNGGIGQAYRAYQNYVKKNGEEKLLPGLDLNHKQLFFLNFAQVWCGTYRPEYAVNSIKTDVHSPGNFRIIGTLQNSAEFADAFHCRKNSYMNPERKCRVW
Assay: Neprilysin activity staining in mouse primary cultured nerve cells (fluorescent substrate, confocal microscopy)
Format: cell-based
Conditions: for action against the neprilysin activity or its gene expression: general statement in the description
Protocol: Nerve cells were prepared from the mouse fetal cerebral cortex and hippocampus and seeded on a poly-L-coated chamber slide (8 chambers, IWAKI 4730-040) at a density of 1×10^5 cells/chamber, followed by incubation for 7 days. After completion of the incubation, the cells were washed with TBS (pH 7.4) and fixed for 12.5 minutes at 20° C. with a paraformaldehyde solution (1.5% paraformaldehyde/50 mM phosphate buffer, pH 6.8). After the cells were washed twice with TBS, 0.2 ml of substrate solution (glutaryl-alanyl-alanyl-phenylalanyl-4-methoxy-2-naphthylamide, Sigma G3769, fmal concentration: 0.5 mM; 0.05 M Tris-HCI buffer, pH 7.4 (pH was adjusted to 7.4 at 4° C.)) was added to the cells, followed by reacting at 4° C. for 48 hours. After completion of the reaction, 25 μl of the solution mixture of aminopeptidase (Sigma L-5006, final concentration: 20.4 μg/ml) and phosphoramidone (Peptide Inst. 4082, final concentration: 10 μM) and 25 μl of nitrosalicylaldehyde solution (6 mM) were further added thereto sequentially. The mixture was reacted at 37° C. for 30 minutes. The reaction was completed by washing the cells twice with TBS. Using argon laser and a filter for rhodamine, positive stained images were observed under a confocal laser scanning microscope (FIG. 1). When the substrate is degraded by neprilysin, an insoluble fluorescent reaction product is formed so that the sites where neprilysin is present are visualized in yellow.
Nerve cells were prepared from the mouse fetal cerebral cortex and hippocampus, followed by incubation as in EXAMPLE 1. On day 7 of the incubation, somatostatin (somatostatin 14 and 28, final concentration: 1 μM) was added to the cells, followed by incubation for further 24 hours. […] To investigate in further detail, these stained images were quantified by image analysis software (Nippon Roper Co., Ltd., MetaVue) and examined.

Row | Substance | action against the neprilysin activity or its gene expression | neprilysin activity in the nerve cells compared to control added with no peptide (mouse fetal cerebral cortex and hippocampus primary nerve cells, peptide final concentration 1 μM, 24 hours, stained images observed)
1 | VIP: vasoactive intestinal peptide, publicly known neuropeptide | inhibitorily acts | –
2 | PACAP: pituitary adenylate cyclase-activating polypeptide, publicly known neuropeptide | inhibitorily acts | markedly decreased
